Reference: patent US20150344535A1 (UNIVERSITY OF QUEENSLAND, published 2015)

B1: NGF-FITC (ligand, mouse, UniProt P01139 122-239, looked up)
chain: SSTHPVFHMGEFSVCDSVSVWVGDKTTATDIKGKEVTVLAEVNINNSVFRQYFFETKCRASNPVESGCRGIDSKHWNSYCTTTHTFVKALTTDEKQAAWRFIRIDTACVCVLSRKATR
modifications: conjugated to FITC
notes: also called fluorescently labelled NGF; FITC-NGF
B2: unlabelled NGF (ligand, mouse, UniProt P01139 122-239, looked up)
chain: B1 chain
notes: also called unlabeled NGF

What was measured:
[1] = target: T1, p75^Δ-JUX (UniProt P07174 30-425); assay: flow cytometry, 26 nM NGF-FITC 60 min on ice, transfected HEK293 cells
T1 construct: whole, on cells; In HEK293 lysate in the co-immunoprecipitation, on HEK293 cells in the NGF-FITC assays; also called p75^NTR with an intracellular juxtamembrane deletion
T1 sequence (looked up): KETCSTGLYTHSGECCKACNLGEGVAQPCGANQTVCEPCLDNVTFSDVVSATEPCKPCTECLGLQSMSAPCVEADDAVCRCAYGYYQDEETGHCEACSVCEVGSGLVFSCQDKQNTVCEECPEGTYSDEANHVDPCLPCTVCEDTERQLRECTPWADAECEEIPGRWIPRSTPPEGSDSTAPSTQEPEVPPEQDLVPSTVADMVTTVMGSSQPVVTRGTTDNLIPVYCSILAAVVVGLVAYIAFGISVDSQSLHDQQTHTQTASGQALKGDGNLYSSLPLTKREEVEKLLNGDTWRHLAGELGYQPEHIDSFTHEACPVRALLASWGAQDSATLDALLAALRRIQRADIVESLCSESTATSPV
Protocol: (§1) To investigate NGF binding, PC12 or transfected HEK293 cells were serum starved for 4 hours, harvested, washed with Dulbecco's Modified Eagle Medium (DMEM), and counted. When used, c29 or scrambled peptide were added to cultures for the third hour of the serum starvation procedure.

[2] = target: T2, p75^FL on transfected HEK293 cells (UniProt P07174 30-425); assay: as above
T2 construct: whole, on cells; also called p75^NTR
T2 sequence (looked up): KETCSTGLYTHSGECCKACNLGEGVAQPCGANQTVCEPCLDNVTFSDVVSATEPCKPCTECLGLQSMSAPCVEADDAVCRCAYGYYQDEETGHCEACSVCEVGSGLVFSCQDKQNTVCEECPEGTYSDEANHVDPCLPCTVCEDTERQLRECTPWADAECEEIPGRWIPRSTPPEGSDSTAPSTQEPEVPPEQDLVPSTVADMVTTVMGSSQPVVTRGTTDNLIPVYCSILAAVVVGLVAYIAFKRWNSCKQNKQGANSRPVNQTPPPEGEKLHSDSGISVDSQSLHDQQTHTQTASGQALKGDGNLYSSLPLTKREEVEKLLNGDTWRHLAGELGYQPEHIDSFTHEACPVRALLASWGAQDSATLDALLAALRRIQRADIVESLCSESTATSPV
Protocol: as §1

[3] = target: T3, TrkAK538A; assay: as above
T3 construct: whole, on cells; On transfected HEK293 cells in flow cytometry; in HEK293 lysates in the co-immunoprecipitations; also called TrkK538A
Protocol: as §1

[4] = target: T3, TrkAK538A; assay: real-time flow cytometry, Hill-Slope association curve, TrkAK538A-expressing HEK293 cells pre-treated with c29
[5] = target: T1, p75^Δ-JUX; assay: flow cytometry competition against 26 nM NGF-FITC, transfected HEK293 cells
Protocol: as §1

[6] = target: T2, p75^FL on transfected HEK293 cells; assay: as above
Protocol: as §1

[7] = target: T3, TrkAK538A; assay: as above
Protocol: as §1

[8] = target: T4, TrkAK538A and p75^FL co-expressed on HEK293 cells (UniProt P07174 30-425); assay: flow cytometry competition against 26 nM NGF-FITC, co-transfected HEK293 cells
T4 construct: whole, on cells; Two receptors on the same cells; also called TrkAK538A + p75^FL
Protocol: as §1

[9] = target: T5, TrkAK538A and p75^Δ-JUX co-expressed on HEK293 cells (UniProt P07174 30-425); assay: as above
T5 construct: whole, on cells; Two receptors on the same cells; also called TrkAK538A + p75^ΔJUX
Protocol: as §1

| Binder | % of cells with fluorescence intensity above background [1] [%] | % of cells with fluorescence intensity above background [2] [%] | % of cells with fluorescence intensity above background [3] [%] | fold faster association rate against untreated TrkAK538A-expressing cells [4] [fold] | excess of unlabelled NGF required for NGF-FITC binding to fall to background fluorescence [5] [fold] | excess of unlabelled NGF required for NGF-FITC binding to fall to background fluorescence [6] [fold] | excess of unlabelled NGF required for NGF-FITC binding to fall to background fluorescence [7] [fold] | excess of unlabelled NGF required for NGF-FITC binding to fall to background fluorescence [8] [fold] | excess of unlabelled NGF required for NGF-FITC binding to fall to background fluorescence [9] [fold] |
| --- | --- | --- | --- | --- | --- | --- | --- | --- | --- |
| B1 | 80 | 80 | 80 | ~3 |  |  |  |  |  |
| B2 |  |  |  |  | 1000 | 1000 | 1000 | 1000 | 1000 |
